Measurements: paper PMC4880445, “Structure of a Holliday junction complex reveals mechanisms governing a highly regulated DNA transaction” (eLife, 2016)

B1: bacteriophage λ integrase (Int) (enzyme)
chain: MGRRRSHERRDLPPNLYIRNNGYYCYRDPRTGKEFGLGRDRRIAITEAIQANIELFSGHKHKPLTARINSDNSVTLHSWLDRYEKILASRGIKQKTLINYMSKIKAIRRGLPDAPLEDITTKEIAAMLNGYIDEGKAASAKLIRSTLSDAFREAIAEGHITTNHVAATRAAKSEVRRSRLTADEYLKIYQAAESSPCWLRLAMELAVVTGQRVGDLCEMKWSDIVDGYLYVEQSKTGVKIAIPTALHIDALGISMKETLDKCKEILGGETIIASTRREPLSSGTVSRYFMRARKASGLSFEGDPPTFHELRSLSARLYEKQISDKFAQHLLGHKSDTMASQYRDDRGREWDKIEIK
notes: Integrase (Int) of bacteriophage λ, tyrosine recombinase; The model holds the NTD (residues 1-55), the NTD-CB linker (56-74) and the CB and catalytic domains (75-356); The NTD of Int-C is not in the model; also called site-specific recombinase; Int-B
B2: bacteriophage λ Xis protein (natural protein, UniProt P03699 1-72, looked up)
chain: MYLTLQEWNARQRRPRSLETVRRWVRECRIFPPPVKDGREYLFHESAVKVDLNRPVTGGLLKRIRNGKKAKS
notes: Virally encoded accessory DNA-bending protein Xis of bacteriophage λ; The 18 C-terminal residues are missing from the model, as in the Xis-DNA crystal structures; also called Xis1.5

Columns and labels:
[1] = biological target: the molecule itself; assay: cryo-EM structure; excisive Holliday junction complex trapped by in vitro recombination of attL and attR (150 nM IHF, 350 nM Xis, 350 nM Int, 25 mM HEPES pH 7.5, room temperature); crosslinked with 0.0035% glutaraldehyde; purified on sucrose gradients; single particle map at about 11 Å; model built by fitting known crystal and NMR structures into the density
[2] = biological target: B1; assay: as above; settings: both partners purified

Binder	stoichiometry N [1]	binding result [2]
B1	4	–
B2	–	binds
